In patent US20060246519 one finds % monomer, with additional biotin and % monomer, no additional biotin data, which are given here for one protein.

Data set [1] can be described thus: SDS-PAGE/Western blot of non-boiled culture supernatant, 20 uM biotin in medium; self-association of subunits. Background: Immunoblotting shows a protein as a band on a membrane.
A short description of data set [2]: SDS-PAGE/Western blot of non-boiled culture supernatant; self-association of subunits.

B1: streptavidin mutein M4 (T76R, V125R, V55T, L109T), secreted by B. subtilis (protein)
chain: DPSKDSKAQVSAAEAGITGTWYNQLGSTFIVTAGADGALTGTYESAVGNAESRYTLTGRYDSAPATDGSGTALGWRVAWKNNYRNAHSATTWSGQYVGGAEARINTQWTLTSGTTEANAWKSTLRGHDTFTKVKPSAASIDAAKKAGVNNGNPLDAVQQ
With B1, in data set [1], the % monomer, with additional biotin was found to be 100%. Further, the % monomer, no additional biotin in data set [2] is 100%.
